Measured values taken from publication PMC9385276.
Where two headings read alike, the source gives them in different places.

Key:
PDGF-BB [1] = molecular target: T1, PDGF-BB (human, UniProt P01127 82-190); experiment: ELISA
PDGF-BB [2] = molecular target: T1, PDGF-BB; experiment: ELISA; remark: listed apart in the source

T1 sequence (P01127 82-190): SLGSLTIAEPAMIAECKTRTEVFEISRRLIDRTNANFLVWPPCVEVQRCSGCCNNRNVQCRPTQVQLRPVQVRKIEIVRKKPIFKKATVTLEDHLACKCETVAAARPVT

B1: Aa11 (structured_DNA)
DNA: CAGGCTACGGCACGTAGAGCATCACCATGATCCTGAAAAAATAATACGACTCACTATAGGGCCGTAGCCTG
binding result (PDGF-BB [1]): binds

B2: Aa10 (structured_DNA)
DNA: CAGGCTACGGCACGTAGAGCATCACCATGATCCTGAAAAAATAATACGACTCACTATAGGGTCCGTAGCCTG
binding result (PDGF-BB [2]): binds
